Our source for the Kd, binding result and IC50 values is patent US6207816, “High affinity oligonucleotide ligands to growth factors” (NeXstar Pharmaceuticals, Inc.).

In series [1] the target is T1, PDGF-AB (Homo sapiens, UniProt P04085;P01127 P04085:87-211,P01127:82-190). The series can be described thus: filter; thrombin aptamer control. To be noted: tags: R&D Systems, E. coli; predicted stem-loop.
For series [2], the target named is T2, PDGF-BB (Homo sapiens, UniProt P01127 P01127:82-190). The series can be described thus: competition; no effect on receptor binding or mitogenesis. To be noted: tags: R&D Systems; chain copies: 2; stem-loop.
T2 sequence (P01127 82-190, one chain of several): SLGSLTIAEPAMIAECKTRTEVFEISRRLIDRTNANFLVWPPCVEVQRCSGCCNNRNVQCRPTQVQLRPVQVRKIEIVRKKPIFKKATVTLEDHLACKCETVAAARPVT
Method: After incubation for 24 h at 37° C., ^3H-radioactivity incorporated into DNA was determined using a β-counter.
Series [3] has as its target T3, TGF-beta1 (Homo sapiens, UniProt P01137 P01137:279-390). Put plainly: cell_activity; second value 298 nM. To be noted: tags: Genentech; chain copies: 2. On the procedure: (§1) Mink lung epithelial cells (MLEC) carrying the Pai1/luc construct were maintained in DME containing 10% fetal bovine serum and 400 μg/ml G418. MLEC-Pai1/luc cells were plated at 3.2×10^4 cells per well in a 96 well Falcon plate, in 100 μl of DME+10% fetal bovine serum overnight. Media was made from autoclaved water. The cells were washed three times (100 μl) in serum free DME plus Solution A (1:1). Solution A is 30 mM Hepes pH 7.6, 10 mM glucose, 3.0 mM KCl, 131 mM NaCl, 1.0 mM disodium phosphate. Samples (100 μl) were added in DME containing 20 mM Hepes pH 7.5, and 0.1% BSA (Fluka, radioimmunoassay grade). All samples were in triplicate. After six hours at 37° C. in a 5% CO_2 incubator the media was removed and cells were washed three times (100 μl each) in cold PBS. Lysis buffer (75 μl) (Analytical Luminescence Laboratory) was added and the plates incubated on ice for 20 min. The plates were sealed and frozen at −80° C. until assayed. Samples (25 μl) were assayed for luciferase activity with the Enhanced Luciferase Assay Kit from Analytical Luminescence Laboratory (San Diego, Calif., USA) according to the manufacturers instructions using the Berthold Microlumat LB96P luminometer.
(§2) Ligands tested for inhibition of TGFβ1 activity were tested at a minimum of five concentrations. […]

The target in series [4] is T4, KGF (hKGF) (Homo sapiens, UniProt P21781 P21781:32-194).
T4 sequence: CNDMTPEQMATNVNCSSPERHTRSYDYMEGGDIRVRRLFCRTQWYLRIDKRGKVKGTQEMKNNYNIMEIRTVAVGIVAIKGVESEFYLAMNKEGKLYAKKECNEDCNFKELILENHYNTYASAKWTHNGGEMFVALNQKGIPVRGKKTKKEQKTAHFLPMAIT
Put plainly: filter; DPBS 37 C. As to conditions: tags: Upstate Biotechnology.

Series [5] addresses T4, KGF (hKGF). Put plainly: competition; PC-3 assay. As to conditions: tags: Upstate Biotechnology. As for the experimental part: PC-3 cells were plated in 24-well plates at about 10^5 cells per well. Following growth for […], the cells were serum starved for 24 hours, washed two times with 500 µl of cold DPBS, and then incubated with 500 µl binding buffer (BB1; DPBS, 0.5 mM MgCl_2, 0.2% BSA. 0.02% sodium azide) containing various concentrations of ^125I-labeled KGF ranging from 0 to 0.8 nM. Following 3–3.5 hour incubation at 4° C., the binding mixes were aspirated and the well-adhered cells were washed two times with 1 ml BB1 and once with 1 ml BB1 supplemented with 0.5M NaCl. The remaining bound labeled hKGF was solubilized in 600 µl 0.5% SDS/0.1M NaOH and counted in a gamma counter (Beckmann). Nonspecific binding was determined in the presence of 100 fold molar excess of unlabeled hKGF. For competition assays, the labeled hKGF was kept constant at 0.3 nM, and varying concentrations of competitor molecules were included in the binding reactions ranging from 0–1,000 nM. Binding curves were fitted to the equation: […]
A subset of these ligands was tested on the NIH3T3/FGFR-2. In determining the Ki values, it was assumed that 3T3 cells have 500,000 binding sites per cell and PC-3 cells have 5,000 binding sites per cell.

The target of series [6] is T1, PDGF-AB. Put plainly: filter; 41t binds within factor 2 of full length. To be noted: tags: R&D Systems. As for the experimental part: (§3) D. Determination of the Apparent Equilibrium Dissociation Constants and the Dissociation Rate Constants The binding of ssDNA ligands at low concentrations to varying concentrations of PDGF was determined by the nitrocellulose filter binding method as described (Green et al., (1995) *Chemistry and Biology* 2: 683–695). The concentrations of PDGF stock solutions (in PBS) were determined from the absorbance readings at […] using the following $e280$ values calculated from the amino acid sequences (Gill, S. C., and von Hippel, P. H. (1989) *Anal. Biochem.* 182: 319–326): 19,500 M^-1cm^-1 for PDGF-AA, 15,700 M^-1cm^-1 for PDGF-AB and 11,800 M^-1cm^-1 for PDGF-BB. ssDNA for all binding experiments were purified by electrophoresis on 8% (>80 nucleotides) or 12% (<40 nucleotides) polyacrylamide/7 M urea gels. All ssDNA ligands were heated at 90° C. in binding buffer at high dilution ($\approx$1 nM) for 2 min and cooled on ice prior to frier dilution into the protein solution. The binding mixtures were typically incubated for 15 min at 37° C. before partitioning on nitrocellulose filters.

Series [7] has as its target T1, PDGF-AB. Put plainly: filter; 20t binds within factor 2 of full length. As to conditions: tags: R&D Systems. On the procedure:
as §3

In series [8] the target is T2, PDGF-BB. Put plainly: filter; 37 C, PBSM + 0.01% HSA; high affinity component. To be noted: tags: R&D Systems, E. coli; chain copies: 2; label: 5'-32P; three-way helix junction. As for the experimental part:
as §3
(§4) The fraction of ^32P 5' end-labeled DNA ligands bound to varying concentrations of PDGF was determined by the nitrocellulose filter binding method. Minimal ligands tested were 20t (○), 36t (Δ), and 41t (□). […]

For series [9], the target named is T1, PDGF-AB. The description is as above. As to conditions: tags: R&D Systems, E. coli; label: 5'-32P; three-way helix junction. On the procedure: as §3, §4
Series [10] deals with PDGF-AA (Homo sapiens, UniProt P04085 P04085:87-211). Put plainly: filter; 37 C; comparable to random DNA. As to conditions: tags: R&D Systems, E. coli, long form A-chain; chain copies: 2; label: 5'-32P; three-way helix junction. As for the experimental part:
as §3, §4

Series [11] deals with T2, PDGF-BB. Put plainly: competition; 125I-PDGF-BB binding to PDGF alpha-receptor on PAE cells. To be noted: tags: R&D Systems; chain copies: 2; three-way junction.
The target of series [12] is T3, TGF-beta1. The series can be described thus: filter; n=3; KRH buffer 37 C; IC50 25 ± 14 nM in PAI-luciferase assay. As to conditions: tags: Genentech or R&D Systems; chain copies: 2.
Series [13] concerns the target T3, TGF-beta1. The series can be described thus: filter; boundary experiment. As to conditions: tags: Genentech; chain copies: 2.
Series [14] addresses T3, TGF-beta1. The series can be described thus: cell_activity; second value 103 nM. As to conditions: tags: Genentech; chain copies: 2. As for the experimental part: as §1, §2

T1 sequence (P01127 82-190, chain 2 of 2, other chains not shown): as the sequence (P01127 82-190, one chain of several) above
T3 sequence (P01137 279-390, one chain of several): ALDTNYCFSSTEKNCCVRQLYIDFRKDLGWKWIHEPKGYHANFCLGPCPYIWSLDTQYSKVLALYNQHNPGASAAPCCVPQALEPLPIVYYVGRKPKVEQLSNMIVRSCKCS

B1: T39 (ssDNA)
DNA: CAGTCCGTGGTAGGGCAGGTTGGGGTGACTTCGTGGAA
modifications: 3'-3' inverted T
For B1, the Kd in series [1] is 230 nM. For the same molecule, the binding result in [2] was “no binding”.

B2: lib2-6-1-81 (ssRNA)
RNA: GGGGGAGAACGCGGAUCCUGUCUCCACCGCCGAUACUGGGGUUCCUGGGGCCCCUCCAUGCAGGAGGGGGGUGGUUCGGAG
modifications: 2'-NH2 U, 2'-F C
Molecule B2 gave an IC50 in series [3] of 201 nM.

B3: 10F (ssRNA)
RNA: GGGAGGACGAUGCGGGACCAGAUGGCGGAUUUUUCAGCAAUCCUCCCCCCGCUGCCCAGACGACUCGCCCGA
modifications: 2'-F pyrimidines
In the case of B3, binding in series [4] was put at a Kd of 0.47 nM.

B4: 10F (K10F) (ssRNA)
RNA: B3 RNA
modifications: 2'-F pyrimidines
The molecule B4 showed an IC50 in series [5] of 30 nM.

B5: ligand 41 full length (ssDNA)
DNA: ATCCGCCTGATTAGCGATACTCAGGGCACTGCAAGCAATTGTGGTCCCAATGGGCTGAGTACTTGAGCAAAATCACCTGCAGGGG
Consider B5, for which the binding result in [6] is on record as “binds”.

B6: ligand 20 full length (ssDNA)
DNA: ATCCGCCTGATTAGCGATACTATGGGAGGGCGCGTTCTTCGTGGTTACTTTTAGTCCCGACTTGAGCAAAATCACCTGCAGGGG
In the case of B6, in [7], the binding result was “binds”.

B7: 20t (ssDNA)
DNA: TGGGAGGGCGCGTTCTTCGTGGTTACTTTTAGTCCCG
modifications: 3'-3' inverted T
For the molecule B7, the results for the Kd in [8], in series [9] and in [10] were 0.127 nM, 0.147 nM and 47 nM, respectively. The IC50 in series [11] was ~1 nM.

B8: 4N (ssRNA)
RNA: GGGAGGACGAUGCGGGUGGUGAAGAGGUACCGGAAUUGCUAAAGAUACCACGGCCCAGACGACUCGCCCGA
modifications: 2'-NH2 pyrimidines
Regarding B8, binding in [4] was characterised by a dissociation constant (Kd) of 0.75 nM.

B9: 4N (K4N) (ssRNA)
RNA: B8 RNA
modifications: 2'-NH2 pyrimidines
B9 returned an IC50 in [5] of 70 nM.

B10: lib3-13 (ssRNA)
RNA: GGGGGAGAACGCGGAUCCGAGCAAUCCCAGGCGCAUAGCUUCCGAGUAGACAGGAGGGAGGGGUGGAUGUGGCGUCUACUCGGUGUCGUGAAGCUUCGCUCUAGAUCUCCCUUUAGUGAGGGUUA
modifications: 2'-NH2 pyrimidines
Take B10: the Kd in series [12] was determined as 0.83 nM.

B11: 47N (ssRNA)
RNA: GGGAGGACGAUGCGGGAAGGGUAGGAAGGUCAAGAGGAAACAGCGCUUCGGGGGUGCAGACGACUCGCCCGA
modifications: 2'-NH2 pyrimidines
For the molecule B11, the Kd in [4] was found to be 1.76 nM.

B12: lib3-13-(38-123) (ssRNA)
RNA: GCUUCCGAGUAGACAGGAGGGAGGGGUGGAUGUGGCGUCUACUCGGUGUCGUGAAGCUUCGCUCUAGAUCUCCCUUUAGUGAGGGU
Take B12: the binding result in series [13] is “binds”.

B13: lib3-13-79 (ssRNA)
RNA: GGGGGAGAACGCGGAUCCGAGCAAUCCCAGGCGCAUAGCUUCCGAGUAGACAGGAGGGAGGGGUGGAUGUGGCGUCUAC
As to B13, the binding result in [13] is given as “binds”.

B14: lib2-6-1 (ssRNA)
RNA: GGGGGAGAACGCGGAUCCUGUCUCCACCGCCGAUACUGGGGUUCCUGGGGCCCCUCCAUGCAGGAGGGGGGUGGUUCGGAGAAAGCUUCGCUCUAGAUCUCCCUUUAGUGAGGGUUA
modifications: 2'-NH2 U, 2'-F C
Regarding B14, in [14], the IC50 was found to be 112 nM.
